# Test results as given in publication doi:10.1101/2022.01.28.478199 (bioRxiv, 2022).
# Several values for one entry are separate records, joined by “and”; a condition that tells them apart may be missing. Equal entries are not always repeated.
# How the values were obtained:
# [1] = molecular target: the molecule itself; assay: SEC
# [2] = molecular target: the molecule itself; assay: native gel or EMSA
Protein,stoichiometry N [1],stoichiometry N [2]
WT Hsp78 expressed and affinity purified from E. coli (natural protein) not shown,2 and 3,–
Hsp78-6xHis (wild-type Hsp78 with a C-terminal 6x polyhistidine-tag) (natural protein) not shown,–,3 and 6
